What all share (assay type): biochemical
A short description of test [1]: Enzyme/sugar solution dosed onto enzyme-free electrochemical cell (process of the invention), current response. As to conditions: FIGS. 6-8; for Current response to xylose compared with glucose: xylose less than 10 mM, about 13 activity units per cell; for Current response to all reducing sugars tested: sugars up to about 40 mM. As to the method:
The response of wild-type s-GDH to reducing sugars was measured using electrochemical cells (i.e., test strips) made by a web-based process in which the working electrode (gold) was slot coated with a buffered reagent solution containing 750 mM ferricyanide, 67 mM citraconate at pH 6.8, 0.1% pluronics and 75 mM sucrose. As in Example 1, an IR energy source was used to dry the reagent onto the working electrode. Electrochemical cells were formed by adhering the working electrode with dried reagent to a gold counter electrode containing dried MESA to prevent fouling of the counter electrode.
Wild-type s-GDH in 67 mM citraconate at pH 6.8 with PQQ at a 2 to 1 mole ratio of PQQ to GDH and 2 mM CaCl2 was mixed with physiologically relevant concentrations (up to about 40 mM or 720 mg/dL) of one of the following sugars: glucose, xylose, galactose, maltose, or lactose. The concentration of the wild type s-GDH in each solution was adjusted such that approximately 13 activity units per electrochemical cell were used. Each enzyme/sugar-containing solution was dosed onto an electrochemical cell containing dried ferricyanide, citraconate, Pluronics and sucrose but no enzyme (see above for concentrations). The current response was measured and the average of three determinations was graphed as a function of sugar concentration, as shown in FIG. 6.
The response of Asn452Thr to reducing sugars was measured using the same lot of electrochemical cells as described in Example 2 above (i.e., with cells containing dried ferricyanide, citraconate, Pluronics and sucrose but no enzyme). Asn452Thr was mixed with physiologically relevant concentrations (up to about 40 mM or 720 mg/dL) of one of the following sugars: glucose, xylose, galactose, maltose, or lactose. The concentration of Asn452Thr in each solution was adjusted such that approximately 13 activity units per electrochemical cell were used. Each enzyme/sugar-containing solution was dosed onto an electrochemical cell containing dried ferricyanide, citraconate, Pluronics and sucrose but no enzyme. […] Thus, the assay mimics the results obtained with Asn452Thr-coated strips with the advantages discussed above.
The response of Asp167Glu to reducing sugars was measured as described in Example 3 above. Asp167Glu was mixed with physiologically relevant concentrations (up to about 40 mM or 720 mg/dL) of one of the following sugars: glucose, xylose, galactose, maltose, or lactose; and dosed onto an electrochemical cell containing dried ferricyanide, citraconate, Pluronics and sucrose but no enzyme. […] Thus, again, the assay beneficially mimics the results obtained with Asp167Glu-coated strips but in a quick and easy-to-use format.

A short description of test [2]: DCIP/PES spectrophotometric assay (enzyme-limiting conditions). As to conditions: same range of sugar concentrations; results not shown. The procedure:
(§1) In order to develop an assay for screening mutant forms of s-GDH with varying sugar specificities, the response of wild type and mutant forms of s-GDH with reducing sugars first were tested in a conventional enzyme-coated glucose test strip format. The screening assay ideally mimics the response shown with conventionally enzyme-coated strips tested with whole blood or plasma spiked with a reducing sugar. The mutant forms of s-GDH tested contained one amino acid substitution each: Asn452Thr and Asp167Glu. The test strips were made by a web-based process in which the working electrode (gold) was slot coated with a buffered reagent solution containing approximately 50 to 500 kU/ml wild type or mutant s-GDH, PQQ at a 2 to 1 mole ratio of PQQ to GDH, 2 mM CaCl2, 750 mM ferricyanide, 67 mM citraconate at pH 6.8, 0.1% pluronics and 75 mM sucrose. […] In the assay, change in the absorbance of DCIP at 600 nm was monitored and the decreasing rate of absorbance was referred to as the reaction rate of the enzyme. […]
(§2) Plasma with about 80 mg/dL (or 4.4 mM) endogenous glucose was spiked with up to 40 mM each of five reducing sugars: glucose, maltose, xylose, galactose and lactose. The spiked samples were dosed onto the above test strips and glucose concentration was determined by chronoamperometry as above. […]

Test [3] is described as follows: Conventional enzyme-coated test strips dosed with whole blood spiked with interfering sugar, chronoamperometry. As to conditions: whole blood about 80 mg/dL glucose spiked with about 4 mM or 12 mM xylose; FIG. 4. As to the method:
In order to develop an assay for screening mutant forms of s-GDH with varying sugar specificities, the response of wild type and mutant forms of s-GDH with reducing sugars first were tested in a conventional enzyme-coated glucose test strip format. The screening assay ideally mimics the response shown with conventionally enzyme-coated strips tested with whole blood or plasma spiked with a reducing sugar. The mutant forms of s-GDH tested contained one amino acid substitution each: Asn452Thr and Asp167Glu. The test strips were made by a web-based process in which the working electrode (gold) was slot coated with a buffered reagent solution containing approximately 50 to 500 kU/ml wild type or mutant s-GDH, PQQ at a 2 to 1 mole ratio of PQQ to GDH, 2 mM CaCl2, 750 mM ferricyanide, 67 mM citraconate at pH 6.8, 0.1% pluronics and 75 mM sucrose. […] The activity of each enzyme was based on a spectrophotometric assay using DCIP (2,6-Dichlorophenolindophenol) and PES (Phenazine Ethosulfate) in 50 mM PIPES (Piperazine, N,N′bis-(2-ethanesulfonic acid)) buffer at pH 6.8. In the assay, change in the absorbance of DCIP at 600 nm was monitored and the decreasing rate of absorbance was referred to as the reaction rate of the enzyme. The enzyme activity by which […] of DCIP was reduced in one minute was defined as 1 Unit. The molar absorption coefficient of DCIP at pH 6.8 was 17.4 mM-1. A COBAS FARA II centrifugal analyzer was used for the spectrophotometric assay. […]
Whole blood at about 80 mg/dL (or 4.4 mM) of endogenous glucose was spiked with either a high therapeutic level (about 60 mg/dL or 4 mM) or three times a high therapeutic level (about 180 mg/dL or 12 mM) of the interfering sugar xylose. The spiked samples were dosed onto the above test strips and glucose concentration was determined by chronoamperometry in which a potential of −0.3 V was applied for 10 seconds, followed by applying a potential of +0.3 V for 5 seconds. Absolute bias to a control sample with no xylose was calculated for each enzyme and was expressed as a function of xylose concentration, as shown in FIG. 4.

Test [4] is described as follows: Conventional wild type s-GDH-coated test strips dosed with plasma spiked with reducing sugars, chronoamperometry. As to conditions: plasma spiked with up to 40 mM of five reducing sugars; at less than about 10 mM; FIG. 5. As to the method:
as §1, §2

Positions count from the first letter of the chain named.

Experimental findings from patent publication US20060003400A1, “Methods and compositions for characterizing a redox reagent system enzyme” (priority 2004, published 2006) are described below.

B1: wild-type s-GDH: soluble form of pyrroloquinoline quinone (PQQ)-dependent glucose dehydrogenase, naturally occurring (protein, UniProt P13650 25-478, looked up)
Quinoprotein glucose …: DVPLTPSQFAKAKSENFDKKVILSNLNKPHALLWGPDNQIWLTERATGKILRVNPESGSVKTVFQVPEIVNDADGQNGLLGFAFHPDFKNNPYIYISGTFKNPKSTDKELPNQTIIRRYTYNKSTDTLEKPVDLLAGLPSSKDHQSGRLVIGPDQKIYYTIGDQGRNQLAYLFLPNQAQHTPTQQELNGKDYHTYMGKVLRLNLDGSIPKDNPSFNGVVSHIYTLGHRNPQGLAFTPNGKLLQSEQGPNSDDEINLIVKGGNYGWPNVAGYKDDSGYAYANYSAAANKSIKDLAQNGVKVAAGVPVTKESEWTGKNFVPPLKTLYTVQDTYNYNDPTCGEMTYICWPTVAPSSAYVYKGGKKAITGWENTLLVPSLKRGVIFRIKLDPTYSTTYDDAVPMFKSNNRYRDVIASPDGNVLYVLTDTAGNVQKDDGSVTNTLENPGSLIKFTYKAK
Take B1: the “Current response to xylose compared with glucose” value in test [1] is “reacted equally well with glucose and xylose”. In test [2], the “Reactivity with xylose and galactose” value was “low reactivity with xylose and galactose”. Moreover, the “Absolute bias to a control sample with no xylose as a function of xylose concentration” value in test [3] was “linear correlation”. Also, the “Current response as a function of sugar concentration” value in test [4] is on record as “reacts equally well with each of the five reducing sugars tested”.

B2: Asp167Glu: mutant form of s-GDH with one amino acid substitution, Asp167Glu (protein, UniProt P13650 25-478, looked up, variant D167E)
Quinoprotein glucose …: B1 Quinoprotein glucose … with D143E
Consider B2, for which, in test [1], the “Current response to all reducing sugars tested” value is given as “reacts equally well with all the other reducing sugars tested” and the “Current response to xylose compared with glucose” value is listed as “reduced response to xylose”. For the same molecule, the “Absolute bias to a control sample with no xylose as a function of xylose concentration” value in test [3] was “reduced response with xylose”.

B3: Asn452Thr: mutant form of s-GDH with one amino acid substitution, Asn452Thr (protein, UniProt P13650 25-478, looked up, variant N452T)
Quinoprotein glucose …: B1 Quinoprotein glucose … with N428T
On to B3, for which, in test [1], the “Current response to all reducing sugars tested” value was “reacts equally well with all the sugars tested at less than 10 mM sugar”; the “Current response to xylose compared with glucose” value is “reacts equally well with glucose and xylose”. In test [3], the “Absolute bias to a control sample with no xylose as a function of xylose concentration” value is listed as “linear correlation”.
